Results on one sequence are retold here after patent publication US20250002886.

This data set deals with T1, MG3-6/3-4 chimera (MG3-6 1-742 + MG3-4 743-1134) (synthetic construct).
T1 sequence: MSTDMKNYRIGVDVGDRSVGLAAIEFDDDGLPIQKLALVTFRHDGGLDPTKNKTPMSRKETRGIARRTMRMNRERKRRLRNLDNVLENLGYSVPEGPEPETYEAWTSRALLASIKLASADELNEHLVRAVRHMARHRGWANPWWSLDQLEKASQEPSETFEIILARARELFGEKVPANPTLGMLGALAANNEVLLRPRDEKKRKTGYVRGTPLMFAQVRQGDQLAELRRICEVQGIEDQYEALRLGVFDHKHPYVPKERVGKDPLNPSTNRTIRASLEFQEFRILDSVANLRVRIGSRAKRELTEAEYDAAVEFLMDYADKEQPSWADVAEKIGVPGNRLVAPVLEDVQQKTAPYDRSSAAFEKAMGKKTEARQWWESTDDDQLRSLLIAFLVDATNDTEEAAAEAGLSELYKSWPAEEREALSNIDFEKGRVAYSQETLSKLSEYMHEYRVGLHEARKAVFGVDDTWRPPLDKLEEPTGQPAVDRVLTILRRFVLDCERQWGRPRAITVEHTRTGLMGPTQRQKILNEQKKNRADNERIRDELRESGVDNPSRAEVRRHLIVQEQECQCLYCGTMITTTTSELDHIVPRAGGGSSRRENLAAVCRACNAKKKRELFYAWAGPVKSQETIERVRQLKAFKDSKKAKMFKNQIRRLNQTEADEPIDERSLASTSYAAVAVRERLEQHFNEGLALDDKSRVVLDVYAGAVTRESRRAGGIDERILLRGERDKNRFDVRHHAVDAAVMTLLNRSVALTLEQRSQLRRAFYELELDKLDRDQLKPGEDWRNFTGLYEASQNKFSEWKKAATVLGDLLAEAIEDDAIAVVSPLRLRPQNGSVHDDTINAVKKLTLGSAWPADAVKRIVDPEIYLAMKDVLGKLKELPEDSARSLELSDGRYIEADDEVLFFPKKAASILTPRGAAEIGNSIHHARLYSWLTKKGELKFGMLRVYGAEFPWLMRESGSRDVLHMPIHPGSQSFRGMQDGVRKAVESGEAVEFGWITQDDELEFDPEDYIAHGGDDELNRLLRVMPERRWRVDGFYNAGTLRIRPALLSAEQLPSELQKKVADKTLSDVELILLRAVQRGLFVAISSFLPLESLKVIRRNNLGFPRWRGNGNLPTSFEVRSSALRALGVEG
Briefly: cell_activity. The settings on record: 2'-OMe and PS at termini; Hep3B; 25.0 % in PHH; PAM NNAAA(A/T)N.

As for “CCAUCUAUCAGCUGGGAAGAUAGUUGAGAAUCGAAAGAUUCUUAAUAAGGCAUCCUUCCGAUGCUGACUUCUCACCGUCCGUUUUCCAAUAGGAGCGGGCGGUAUGUUUU / CCATCTATCAGCTGGGAAGATATCAAATG / CATTTGATATCTTCCCAGCTGATAGATGG [hH364-32 sgRNA ; human HAO1 hH364-32 target]”, the activity was determined as 60 % indel.
